Experimental data taken from patent US20150093383A1 (ONO PHARMACEUTICAL, published 2015).
Square brackets hold non-standard residues; d marks the D form. Ends that are not written are not given here. * marks the point of attachment. Biotin = O=C1N[C@H]2[C@H](CS[C@H]2CCCCC(=O)*)N1; pY = N[C@@H](Cc1ccc(OP(=O)(O)O)cc1)C(=O)O

Columns and labels:
SHP-2 [1] = target: T1, SHP-2 (mouse (endogenous in mouse B cell …, UniProt P35235 2-593)); experiment: pull-down of A20IIA1.6 lysate with biotinylated phosphopeptide, Western blotting
T1 construct: Detected by Western blotting with a Santacruz primary antibody; also called phosphatase
T1 sequence (looked up): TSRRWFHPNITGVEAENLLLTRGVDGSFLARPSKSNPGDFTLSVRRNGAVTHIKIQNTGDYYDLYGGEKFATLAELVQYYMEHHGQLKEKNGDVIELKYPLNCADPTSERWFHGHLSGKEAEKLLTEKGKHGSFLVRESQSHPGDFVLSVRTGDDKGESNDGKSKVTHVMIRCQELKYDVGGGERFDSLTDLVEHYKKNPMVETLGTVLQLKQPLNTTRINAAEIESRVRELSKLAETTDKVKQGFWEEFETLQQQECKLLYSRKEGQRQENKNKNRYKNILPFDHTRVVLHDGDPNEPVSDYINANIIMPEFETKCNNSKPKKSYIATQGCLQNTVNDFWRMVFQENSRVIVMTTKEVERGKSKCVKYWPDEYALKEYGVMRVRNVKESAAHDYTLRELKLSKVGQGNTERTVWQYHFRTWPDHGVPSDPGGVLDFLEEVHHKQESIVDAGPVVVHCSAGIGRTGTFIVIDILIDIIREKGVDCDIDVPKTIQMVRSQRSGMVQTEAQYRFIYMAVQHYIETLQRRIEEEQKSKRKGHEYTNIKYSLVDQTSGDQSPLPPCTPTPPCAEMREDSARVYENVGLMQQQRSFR
Text: (§1) The ITIM domain which is a sequence important for BIR1 in transmitting inhibitory signal and the binding phosphatase were identified. Peptides (Y3: Biotin-HSQELQ³¹³YATPVF (SEQ ID NO:23), Y5: Biotin-DSYKSG³³⁶YVYSEL (SEQ ID NO:24), Y6: Biotin-YKSGYV³³⁸YSELNF (SEQ ID NO:25)) containing intracellular tyrosine of BIR1 (SEQ ID NO:1) and their corresponding phosphorylated peptides (pY3: Biotin-HSQELQ³¹³(pY)ATPVF (SEQ ID NO:26), pY5: Biotin-DSYKSG³³⁶(pY)VYSEL (SEQ ID NO:27), pY6: Biotin-YKSGYV³³⁸(pY)SELNF (SEQ ID NO:28)) were synthesized (consigned to Sigma Genosys). A peptide containing the ITIM sequence of mouse PIR-B and its phosphorylated peptide (Y3: Biotin-ESQDVT⁷⁹⁴YAQLCS (SEQ ID NO:29) and pY3: Biotin-ESQDVT⁷⁹⁴(pY)AQLCS (SEQ ID NO:30)) were synthesized as positive controls. These peptides were connected to Protein A/G PLUS-Agarose (manufactured by Santacruz) via an anti-biotin antibody (manufactured by Sigma) and then allowed to react with a lysate of A20IIA1.6 cell at 4° C. for 2 hours. After immunoprecipitation, western blotting was carried out in the usual way. The membrane was allowed to react with primary antibodies for SHP-1, SHP-2 and SHIP-1 (manufactured by Santacruz), and then allowed to react with an (HRP)-labeled secondary antibody (manufactured by Santacruz), and the bands were detected using an ECL plus Western Blotting Detection System (manufactured by Amersham Biosciences).

SHIP-1 [2] = target: T2, SHIP-1 (mouse (endogenous in mouse B cell …, UniProt Q9ES52 1-1191, limits assumed)); experiment: as above
T2 construct: Detected by Western blotting with a Santacruz primary antibody; also called phosphatase
T2 sequence (looked up): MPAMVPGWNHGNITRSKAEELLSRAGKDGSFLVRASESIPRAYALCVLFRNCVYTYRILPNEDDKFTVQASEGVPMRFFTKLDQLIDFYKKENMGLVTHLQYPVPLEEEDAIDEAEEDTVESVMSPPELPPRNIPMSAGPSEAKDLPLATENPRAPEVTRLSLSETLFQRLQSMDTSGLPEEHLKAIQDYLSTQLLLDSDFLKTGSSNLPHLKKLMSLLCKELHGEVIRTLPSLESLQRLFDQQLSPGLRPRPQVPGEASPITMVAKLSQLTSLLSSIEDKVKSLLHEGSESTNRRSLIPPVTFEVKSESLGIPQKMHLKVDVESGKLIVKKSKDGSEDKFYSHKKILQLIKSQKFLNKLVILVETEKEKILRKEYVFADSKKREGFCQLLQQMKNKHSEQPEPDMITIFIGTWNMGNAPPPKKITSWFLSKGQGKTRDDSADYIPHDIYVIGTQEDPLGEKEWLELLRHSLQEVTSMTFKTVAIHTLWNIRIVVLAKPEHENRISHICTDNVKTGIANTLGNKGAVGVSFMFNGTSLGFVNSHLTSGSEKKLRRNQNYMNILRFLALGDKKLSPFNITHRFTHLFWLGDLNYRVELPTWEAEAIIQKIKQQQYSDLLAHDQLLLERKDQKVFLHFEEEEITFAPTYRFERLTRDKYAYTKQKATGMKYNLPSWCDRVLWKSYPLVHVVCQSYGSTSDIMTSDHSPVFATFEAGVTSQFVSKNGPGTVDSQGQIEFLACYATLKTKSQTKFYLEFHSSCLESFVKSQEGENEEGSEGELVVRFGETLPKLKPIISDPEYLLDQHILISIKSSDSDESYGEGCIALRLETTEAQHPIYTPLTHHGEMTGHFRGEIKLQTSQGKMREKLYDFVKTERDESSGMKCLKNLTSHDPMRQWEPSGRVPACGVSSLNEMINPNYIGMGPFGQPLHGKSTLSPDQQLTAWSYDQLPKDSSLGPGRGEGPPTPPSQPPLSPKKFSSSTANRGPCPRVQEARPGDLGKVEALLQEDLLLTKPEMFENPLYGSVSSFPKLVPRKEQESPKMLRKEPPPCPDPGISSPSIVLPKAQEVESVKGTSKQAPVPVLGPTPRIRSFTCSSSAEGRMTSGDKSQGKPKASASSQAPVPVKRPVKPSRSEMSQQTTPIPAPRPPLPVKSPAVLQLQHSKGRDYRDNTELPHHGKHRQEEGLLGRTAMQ
Text: as §1

SHP-1 [3] = target: T3, SHP-1 (mouse (endogenous in mouse B cell …, UniProt P29351 1-595)); experiment: as above
T3 construct: Detected by Western blotting with a Santacruz primary antibody; also called phosphatase
Text: as §1

SHP-2 [4] = target: T1, SHP-2; experiment: co-immunoprecipitation with 2.4G2 from stimulated A20IIA1.6 cells, Western blotting
Description: (§2) Examination was carried out on whether or not intracellular tyrosine residue is phosphorylated and a phosphatase is recruited when BIR1 is activated. With 30 μg/mL of F(ab′)₂ of rabbit anti-mouse IgG (H+L) antibody or 45 μg/mL of intact antibody thereof (manufactured by Zymed), 3×10⁷ cells of the FcR chimeric protein-stably expressing cell suspended in Ca²⁺-containing HEPES/Hanks' buffer were stimulated at 37° C. for 3 minutes. Thereafter, the cells were lysed with a lysis buffer (1% NP-40, 50 mmol/L Tris-HCl, pH 8.0, 150 mmol/L NaCl, 50 mmol/L NaF, 10% glycerol, 1 mmol/L Na₃VO₄, […], proteinnase inhibitor cocktail tablet (manufactured by Roche Diagnostics)). The cell lysate was allowed to react with Protein A/G PLUS-Agarose (manufactured by Santacruz) to which a rat anti-mouse CD16/CD32 antibody (2.4G2) (manufactured by BD Pharmingen) is bound, at 4° C. for 5 hours or more. The FcR chimeric protein and binding molecules thereof are immuno-precipitated and then Western blotting was carried out in the usual way. The membrane was allowed to react with phosphotyrosine (4G10) (manufactured by Upstate) and primary antibodies for SHP-1, SHP-2 and SHIP-1 (manufactured by Santacruz), followed by the reaction with a horse radish peroxidase (HRP)-labeled secondary antibody (manufactured by Santacruz) to detect the bands by an ECL detection system (manufactured by Amersham Biosciences).

SHIP-1 [5] = target: T2, SHIP-1; experiment: as above
Description: as §2

SHP-1 [6] = target: T3, SHP-1; experiment: as above
Description: as §2

Measured: binding result

T3 sequence (P29351 whole entry): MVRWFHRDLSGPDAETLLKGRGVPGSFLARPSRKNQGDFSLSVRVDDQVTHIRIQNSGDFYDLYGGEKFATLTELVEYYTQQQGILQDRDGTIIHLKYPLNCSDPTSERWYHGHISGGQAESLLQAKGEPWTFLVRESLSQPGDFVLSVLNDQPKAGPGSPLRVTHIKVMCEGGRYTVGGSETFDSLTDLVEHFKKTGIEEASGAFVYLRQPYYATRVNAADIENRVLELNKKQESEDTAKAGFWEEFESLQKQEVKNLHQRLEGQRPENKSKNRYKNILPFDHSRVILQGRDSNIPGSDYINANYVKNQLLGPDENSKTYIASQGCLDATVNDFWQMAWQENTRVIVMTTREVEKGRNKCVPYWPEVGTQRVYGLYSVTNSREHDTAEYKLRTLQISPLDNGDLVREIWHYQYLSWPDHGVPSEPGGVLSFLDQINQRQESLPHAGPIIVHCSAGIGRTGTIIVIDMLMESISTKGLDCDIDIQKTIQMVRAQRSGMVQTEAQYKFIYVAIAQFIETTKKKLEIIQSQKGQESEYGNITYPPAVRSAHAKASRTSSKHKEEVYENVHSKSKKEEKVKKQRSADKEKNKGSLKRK

Biotin-DSYKSG[pY]VYSEL (Synthesised by Sigma Genosys) [pY5: Biotin-DSYKSG^336(pY)VYSEL]
no binding: SHP-2 [1] | SHIP-1 [2] | SHP-1 [3]

B1: FcR-hBIR1 (YWF) (receptor)
chain: THDLPKAVVKLEPPWIQVLKEDTVTLTCEGTHNPGNSSTQWFHNGRSIRSQVQASYTFKATVNDSGEYRCQMEQTRLSDPVDLGVISDWLLLQTPQLVFLEGETITLRCHSWRNKLLNRISFFHNEKSVRYHHYSSNFSIPKANHSHSGDYYCKGSLGRTLHQSKPVTITVQGPKSSRSLPVLTIVAAVTGIAVAAIVIILVSLVYLKKKQVPKFKTRKAMRNNVPRDRGDTAMEVGIFANILEKQAKEESVPEVGSRPCVSTAQDEAKHSQELQFATPVFQEVAPREQEACDSFKSGFVFSELNF
notes: Stably expressed in the mouse B cell strain A20IIA1.6; Immunoprecipitated from the cell lysate with 2.4G2; also called mutant in which intracellular tyrosine residue of BIR1 was replaced by phenylalanine residue
no binding: SHP-2 [4] | SHIP-1 [5] | SHP-1 [6]
